According to the Human Domainome abundance scans (Beltran et al. 2025):
± gives the uncertainty stated by the source.

B1: Double-stranded RNA-specific adenosine deaminase, residues 296 to 358; numbered along this chain, P55265 (parent)
chain: MAEIKEKICDYLFNVSDSSALNLAKNIGLTKARDINAVLIDMERQGDVYRQGTTPPIWHLTDK

Variants of: B1
Experiment: abundance fitness (aPCA) (normalised: wild type 0, dead -1); higher = more abundant; growth selection in yeast, the domain comes from the species named
Conditions: Homo sapiens

| Variant | abundance fitness |
| --- | --- |
| K5H | -0.68 ± 0.1 |
| K5G | -0.616 ± 0.084 |
| K5Q | -0.28 ± 0.065 |
| K5M | -0.574 ± 0.082 |
| K5F | -0.449 ± 0.066 |
| K5V | -0.652 ± 0.073 |
| K5P | -0.486 ± 0.069 |
| K5E | -0.666 ± 0.22 |
| K5A | -0.428 ± 0.058 |
| L12R | -0.367 ± 0.085 |
| L12C | -1.02 ± 0.3 |
| L12M | -0.82 ± 0.21 |
| L12D | -0.706 ± 0.34 |
| L12A | -0.481 ± 0.12 |
| L12E | -0.115 ± 0.098 |
| L23V | -0.316 ± 0.053 |
| L23Y | -0.678 ± 0.12 |
| L23M | -0.374 ± 0.11 |
| L23G | -0.403 ± 0.045 |
| L23Q | -1.2 ± 0.35 |
| L23H | -0.453 ± 0.1 |
| H59T | -0.052 ± 0.056 |
| H59R | 0.281 ± 0.036 |
| S16P | -0.1 ± 0.062 |

| Variant | abundance fitness |
| --- | --- |
| S16A | -0.018 ± 0.048 |
| S16Y | -0.684 ± 0.12 |
| S16W | -0.514 ± 0.086 |
| S16M | -0.379 ± 0.077 |
| A32F | -0.091 ± 0.074 |
| A32Q | -0.034 ± 0.069 |
| A32S | -0.103 ± 0.056 |
| A32K | -0.37 ± 0.096 |
| A32R | -0.485 ± 0.067 |
| A32I | 0.076 ± 0.15 |
| A32E | 0.159 ± 0.074 |
| A32G | -0.091 ± 0.049 |
| Q45S | 0.022 ± 0.038 |
| Q45E | 0.022 ± 0.15 |
| Q45K | -0.492 ± 0.14 |
| Q45T | -0.097 ± 0.062 |
| Q45V | -0.075 ± 0.058 |
| Q45P | -0.912 ± 0.14 |
| Q45F | -0.729 ± 0.082 |
| I4K | -0.2 ± 0.084 |
| I4F | -0.649 ± 0.082 |
| I4H | -0.227 ± 0.064 |
| I4L | 0.146 ± 0.03 |
| I4E | -0.287 ± 0.075 |

| Variant | abundance fitness |
| --- | --- |
| I4Y | -0.398 ± 0.063 |
| I4P | -0.551 ± 0.061 |
| K63H | -0.374 ± 0.31 |
| K63S | -0.367 ± 0.11 |
| K63Q | -0.79 ± 0.41 |
| K63P | -0.341 ± 0.12 |
| K63F | -0.217 ± 0.46 |
| R44I | -0.26 ± 0.092 |
| R44C | -0.6 ± 0.1 |
| R44L | -0.373 ± 0.055 |
| R44E | -0.126 ± 0.057 |
| R44W | -0.705 ± 0.14 |
| R44K | 0.067 ± 0.064 |
| R44S | -0.173 ± 0.046 |
| R44Y | -0.614 ± 0.13 |
| W58F | -0.234 ± 0.11 |
| W58Y | -0.095 ± 0.067 |
| W58V | -0.488 ± 0.053 |
| W58H | -0.278 ± 0.093 |
| W58C | -0.384 ± 0.095 |
| W58M | -0.362 ± 0.06 |
| V15R | -0.231 ± 0.049 |
| V15K | -0.089 ± 0.058 |
| V15G | -0.377 ± 0.053 |

| Variant | abundance fitness |
| --- | --- |
| V15D | -0.463 ± 0.1 |
| V15Q | -0.288 ± 0.077 |
| V15A | -0.147 ± 0.055 |
| D41C | -0.822 ± 0.15 |
| D41E | 0.223 ± 0.13 |
| D41R | -0.73 ± 0.065 |
| D41N | -0.514 ± 0.12 |
| A20L | -0.42 ± 0.057 |
| A20P | -0.673 ± 0.1 |
| A20D | -0.64 ± 0.26 |
| A20Q | -0.472 ± 0.094 |
| A20W | -0.627 ± 0.076 |
| D47Q | 0.122 ± 0.058 |
| D47R | 0.046 ± 0.052 |
| D47Y | -0.068 ± 0.06 |
| D47N | -0.322 ± 0.094 |
| D47K | 0.024 ± 0.07 |
| D47A | -0.117 ± 0.052 |
| Q51W | -0.407 ± 0.067 |
| Q51S | 0.401 ± 0.045 |
| Q51H | -0.094 ± 0.077 |
| Q51V | 0.208 ± 0.046 |
| Q51T | 0.494 ± 0.052 |
| Q51G | -0.215 ± 0.057 |

| Variant | abundance fitness |
| --- | --- |
| Q51E | 0.176 ± 0.084 |
| Q51I | 0.088 ± 0.051 |
| A24P | -0.49 ± 0.098 |
| A24R | -0.544 ± 0.058 |
| A24V | -0.58 ± 0.053 |
| G28M | -0.805 ± 0.11 |
| G28N | -0.43 ± 0.11 |
| G28V | -0.713 ± 0.069 |
| G28H | -0.508 ± 0.097 |
| G28Y | -0.982 ± 0.13 |
| G28T | -0.655 ± 0.076 |
| G28P | -0.234 ± 0.078 |
| G28Q | -0.606 ± 0.14 |
| G28L | -0.97 ± 0.093 |
| G28D | -0.186 ± 0.058 |
| P56Y | -0.693 ± 0.41 |
| P56S | -0.57 ± 0.094 |
| P56C | -0.511 ± 0.35 |
| M1Q | 0.435 ± 0.32 |
| M1R | 0.151 ± 0.059 |
| M1L | -0.29 ± 0.096 |
| M1K | 0.181 ± 0.073 |
| M42P | -0.502 ± 0.059 |
| M42A | -0.479 ± 0.056 |

| Variant | abundance fitness |
| --- | --- |
| M42Q | -0.335 ± 0.057 |
| M42K | -0.303 ± 0.08 |
| M42D | -0.551 ± 0.082 |
| F13I | 0.142 ± 0.09 |
| F13T | 0.227 ± 0.057 |
| F13Y | 0.079 ± 0.077 |
| F13S | 0.403 ± 0.046 |
| F13G | 0.335 ± 0.044 |
| F13Q | 0.541 ± 0.077 |
| F13C | 0.19 ± 0.059 |
| T30D | 0.413 ± 0.053 |
| T30H | -0.252 ± 0.095 |
| T30C | -0.002 ± 0.065 |
| T30P | -0.199 ± 0.064 |
| T30N | 0.127 ± 0.1 |
| T30Q | -0.021 ± 0.086 |
| A2K | 0.168 ± 0.075 |
| A2E | 0.3 ± 0.057 |
| A2T | -0.152 ± 0.086 |
| A2P | -0.335 ± 0.078 |
| A2V | -0.247 ± 0.059 |
| D62L | -0.437 ± 0.063 |
| D62T | -0.15 ± 0.074 |
| D62I | -0.708 ± 0.15 |

| Variant | abundance fitness |
| --- | --- |
| D17A | 0.405 ± 0.22 |
| T53R | 0.238 ± 0.21 |
| L29Y | -0.136 ± 0.052 |
| L29A | -0.103 ± 0.1 |
| L29Q | -0.026 ± 0.092 |
| L29P | -0.336 ± 0.1 |
| T54E | 0.093 ± 0.063 |
| T54P | -0.722 ± 0.1 |
| S18I | -1.01 ± 0.21 |
| S18P | -0.83 ± 0.14 |
| S18W | -0.535 ± 0.079 |
| S18E | -0.49 ± 0.049 |
| S18T | -0.388 ± 0.065 |
| I57C | -0.567 ± 0.08 |
| I57S | -0.265 ± 0.057 |
| I57T | -0.035 ± 0.059 |
| I57W | -0.476 ± 0.073 |
| I57G | -0.449 ± 0.048 |
| I57Y | -0.846 ± 0.11 |
| N22Y | -0.386 ± 0.14 |
| N22E | 0.165 ± 0.083 |
| N22Q | 0.162 ± 0.099 |
| N22W | -0.609 ± 0.11 |
